Laboratory results as given in patent EP2091973A2.

How the values were obtained:
Test in all cases: cell-based or functional assay
[1] = molecular target: gp120 of HIV strain BR004 (clade C) on virus (HIV-1 (strain BR004))
[2] = molecular target: gp120 of HIV strain SF162 (clade B) on virus (HIV-1 (strain SF162))
[3] = molecular target: gp120 of HIV strain ZA009 (clade C) on virus (HIV-1 (strain 97ZA009))

MAb b12 (antibody) showed an IC80, HIV neutralization (PBMC hosts, p24) [1] greater than 20 µg/mL, an IC80, HIV neutralization (PBMC hosts, p24) [2] of 14.1 µg/mL and an IC80, HIV neutralization (PBMC hosts, p24) [3] greater than 20 µg/mL.
